Data from the nanobody polyreactivity screen of Harvey et al. (2022).

assay: yeast display, Sf9 membrane polyspecificity reagent, FACS + sequencing; frameworks hold sequencing errors
Method in brief: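 Nanobodies from a synthetic yeast display library (Saccharomyces cerevisiae BJ5465), induced 36–48 hours with galactose, were stained 1 hour at 4 °C with 10% biotinylated, detergent-solubilized Sf9 membrane reagent, enriched on streptavidin microbeads, then FACS-sorted. Anti-HA (expression) and streptavidin (reagent binding) fluorescence set low and high (top ~1%) gates. Polyreactivity labels come from the gate of origin. Genes were colony-PCR amplified, MiSeq 2 × 250 sequenced and filtered by CDR length.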

Row | Sequence | polyreactivity (PSR sort gate)
1 | QVQLVESGGALVQAGGSLRLSCAASAFIFKANAMGRYRQAPGKERELVASITFGGDSTYYADSVKGRFTISRDNAKNTVYLQMNSLKAEDNAVYFCNTRRRSYPTYYYWGQGTQVTVLS | low polyreactivity
2 | QVQLVESGGGLVQAGGSLRLSCAASGFIFGYYAMGWYRQAPGKERELVAAITSGTGTNYADSVKGRFTISRDNAKNTVYLQMNSLKPEDTAVYYCAAYYTWLSEFGYWGQGTQVTVSS | low polyreactivity
3 | QVQLVESGGGLVQAGGSLRLSCAASGIIFAANAMGWYRQAPGKERELVAAISWSGTSTYYADSVKGRFTISRDNAKNTVYLQMNSLNPEDTAVYYCAVDYYLWSGYSYLYEFEYWGQGTQVTVSS | high polyreactivity
4 | QVQLVESGGGLVQAGGSLRLSGDASGYIFVRYAMGWYRQAPGQARELVAAINSSGGRTYYADSVKGRFTISRDNAKNTVYLQMNSLKPEDTAVYYCAAYAYYRSGYRALEGYWGQGTQVTVSS | high polyreactivity
5 | QVQLVESGGGLVQAGGSLRLSCPASGGTFYVYAMGGYRQEPGKERELVAAISTSDGITYYADSVKGRFTISRDNAKNNVYLQMNSLKPEDTAVYYCAAVYAGVGSPVKRDYWGLGTQVTVSS | high polyreactivity
6 | QVQLVESGGGLVQAGGSLRLSCAASGRIFWVYTMGWYRQAPGKERELVAAITSADSTNYADSVKGRFTISRDNAKNTVYLQMNSLKAEDTAVYYCAARLARDQVREWDERYYYWGQGTQVTVSS | low polyreactivity
7 | QVQLVESGGCLVQAGGSLRLSCAASGSIFNSNAMGWYRPARGKERELVAVISWSDGSTRYADSVKGRFTISRDNAKNTVYLQMHSLKPEDTAVYYCNADLVYYYRQEVDYWGQGTQVTVTS | low polyreactivity
8 | QVQLVESGGGLVQAGGSLRLSCAASGSIFTLNAMGWYRQAPGKEREFVAAITWSGGSTYYADSVKGRFTISRDNAKNTVYLQMNSLKPEDTAVYYCNVEPVDRWYYKYDYWGQGTQVTVSS | low polyreactivity
9 | QVQLVESGGGLVQAGGSLRLSCASSGLTSYSAMGWYRQAPGKERELGAAIDGSDGNTYYADSVKGRFTISRDNAMNTVYLQMKSLKPEDTAVYYCNAETVRYWWSWENDYWGQGTQVTVSS | high polyreactivity
10 | QVQLVESGGGFVQAGGSLRLSCAASGNIFPYNAMGWYRQAPGKERELVAAISSGGSTNYADSVKGRFTISRDNAKNTVYLQLNSLQPEDTAVYYCAAARSGGYDYWGQGTQVTVSS | low polyreactivity
11 | QVQLVESGGCLVQAGGSLRLSCAASGRTFRYYAMGWYRQAPGKERELVAAISSSGDRTYYADSVKGRFTISRDNAKNTVYLQMNSLKPEDTAVYYCAADRGARGDYWGQGTQVTVSS | high polyreactivity
12 | QVQLVESGGGLVQAGGSLRLSCAASGITLYKYAMGWYRQAPGKERELVASISRSGGSTYYADSVKGRFTISRDNAKNTVYLQMNSLKPEDTAVYYCNARAKSYRFGYWGQGTQVTVSS | high polyreactivity
13 | QVQLVESGGGLVQAGGSLRLSCAASGSIFIHYAMGWYRQAPGKERELVAAISRTGSTYYADSVKGRFTISRDNAKNTVYLQMNSLKPEDTAVYYCAKRISTRRYDYWGQGTQVTVSS | low polyreactivity
14 | QVQLVESGGGLVQAGASLRLSCAASGSIFVRNAMGWYRQAPGKERELVAAISKRGTSTYFADSVKGRFTISRDNAKNTVYLQMNSLKPEDTAVYYCNAVLSNSRSYLIRLDYWGQGTQVTVSS | high polyreactivity
15 | QVQLVESGGGLVQAGGSLRLSCAASGYTFAFYAMGWYRQAPGKERELVAAISAGGGRTYYADSVKGRFTISRDNAKNTVYLQMNSLKPEDTAVYYCATDLIQGAAPFRYDYWGQGTQVTVSS | low polyreactivity
16 | QVQLVESGGRLVQAGGSLRLSCAASGFTIPHYAMGWYRQAPGKERELVAVISFSGGRTYYADSVKGRFTISRDNAKNTVYLQMNSLKPEDTAVYYCPAGFWDDYGKYYYWGQGTQVTVSS | high polyreactivity
17 | QVQLVESGGGLVQAGGSLRLSCAASGITFADNAMGWYRQAPGKERELVAANSWSGDRTFYADSVKGRFTISRDNAKNTVYLQMNSLKPEDTAVYYCARDSLQVFYPYASDDYWGQGTQVTVSS | low polyreactivity
18 | QVQLVESGGGLVQAGGSLRLSCAASGSILGGNAKGWYRQAPGKERELVAAITFSGGGTYYADSVKGRFTISRDNAKNTVYLQMNSLKPEDTAVYYCAADKDGYTYEFDYWGQGTQVTVSS | low polyreactivity
19 | QVQLVESGGGLVQAGGSLRLSCAASGGTFRTYAMGWYRQAAGKERELVAAITGSGGRTYYADSVKGRFTISRDNAKNTVYLQMNSLKPEDTAVYDCNTGPVYQGYHWGQGTQVTVSS | high polyreactivity
20 | QVQLVESGGGLVQAGGSLRLSCAASGFTFYSYAMGWYRQAPGKERELVAAISWSGTRTYYADSVKGRFTISRDNGKNTVYLQMTSLKPEVTAVYYCAGRGYRYGYGYWGQGTQVTVSS | high polyreactivity
21 | QVQLVESGGGLVQAGGSLRLICAASGSIFSENTMGWYRQAPGKERELVAAISWSGGSTKYADSVKGRFTISRDNAQITVYLQMNCLKPEDTSVYNCGTDIHDDTGAYDYWGQCTQVTVSS | low polyreactivity
22 | QVQLVESGGGLVQAGGSLRLSCAASGSTFKVNAMGWYRQAAGKEREFVAAITKNGGRTYYADSVKGRFTISRDYAKNTVYLQMNSLKPEDTAVYYCAARLYLPIIVVDLYGYDYWGQGTQVTVSS | low polyreactivity

Row | Sequence | polyreactivity (PSR sort gate)
23 | QVQLVESGGGLVQAGGSLSLSCAASGRTFWYKDMGWYRQAPGKERELVAVISSGAITFYADSVKGRFTISRDNAKNTVYLQMNSLNPEDTAVYYCAARSYLSLIDYWGQGTLVTVSS | high polyreactivity
24 | QVQLVESGGGLVQAGGSLRLSCAASGSIFTRYAMGWYRQAPGKERELVATISFIGSSTYYADSVKGRFTISRDNAKNTVYLQMNSLKPEDTAVYSCAATGYARQYEYRYDYWGQGTQVTVSS | low polyreactivity
25 | QVQLVESGGGLVQAGGSLRLSCAASGSIFDYNTMGWYRQAPGKERELVAVISGTGGSTYYADSVKGRFTISRGNAKNTVYLQMNSLKPEDTAVYYCAADTFVRNQWYLVEYWGQGTQVTVSS | low polyreactivity
26 | QVQLVESGGGLVQAGGSLRLSCAASGFICTGYTMGWYRQAPGKERELVARISSGDSTKYADSVKGRFTISRDNAKNTVYLQMNSLKPEDTAVYYCNVRDRRSIRSRSDYWGQGTQVTVSS | high polyreactivity
27 | QVQLQECGGGLVQAGGSLRLTCAASGNIFHADIMGWYRQAPGKERELVARVTDGGSTNYADSVKGRLTISRDNAKNTVYLQMNSLKPEETAVYYCAAIVYPVILTYFDYDYDYFYWGQGTQVTVGS | low polyreactivity
28 | QVQLVESGGGLVPAGGSLRLSSAASGRIFVRNAMGWYRQAPGKERELVAAITRTGASTYYADSVKGRFTISRDNEKNTVYLQMNSLKPEDTAVYFFAAVWGWPYWVYRYDYWGQGTQVTVSS | high polyreactivity
29 | QVQLVESGGGLVQAGGSLRLSCAASGSIFHNYDMGLYRQAPGKEREMVADISRGGDTNYADSVKGRFTISRDNAKNTVYLQLNSLKPEDTAVYYCNATYWILDSPWWRETFAYWGQGTQVTVSS | low polyreactivity
30 | QVQLVESGGGLVQAGGSLRLSCSASGLIFSTYAMGWYRQAPGKVRELVAAISGTGSTYYADSVKGRFTISRDNAKNTVYLQMNRLKPEDTSVYYCAAGATLWLLGLKMGYWGQGTQVTVSS | low polyreactivity
31 | QVQLVESGGGLVQAGGSLRLSCAASGSTIRKYAMGWYRQAPGKERELVAAISARGGSTYYADSVKGRFTISRDNAKNTVYLQMNSLNPEDTAVYYCAADGYRPYSTFDYWGQGTQVTVSS | high polyreactivity
32 | QVQLVESGGGLVQAGGSLRLSCAASGRTFALYAMAWYRQAPGKERELVASISWRGGSTYYADSVKGRFTISRDNAKNTVYLQMNSLKPEDTAVYYCAADTWSYGPLNYRLEYWGQGTQVTVSS | low polyreactivity
33 | QVQLEESGGGLVQAGGSLRLSCAATGFIFRGYAMGWYRPAPGKERELVAAITSSGGDTYYADSVKGRFTISRDNAKNTVYLQMNSLKPEDTAVYYCNARDYASGTEGDYWGQGTQVTVSS | low polyreactivity
34 | QVQLVESGGGLVQAGGSLRFSCAASGSTFRAYAMGWYRQAPGKEREFVASISWSGGRTYYADSVKGRFTISRDNAKNTVYLQMNSLIPEDTAVYYCAADYDVLDYGNLRYGFDYWGQGTKVTVSS | low polyreactivity
35 | QVQLVESGGGLVQAGGSLRLSCAASGFIFGTYAMGWYRQAPGKERELVAAITGSGGDTYYADSVKGRFTISRDNAKNTVYLQMNSLKPEDTAVYYCAAVRPPTPSRRREDYWGQGTQVTVSS | low polyreactivity
36 | QVQLVESGGGLVQAGGSLRLSCAASGFTFYPNAMGWYRQAPGNERELVATITGSGGSTNYADSVKGRFTISRDTAKNTVYLHMNRLKPEDTAVYYCAADYAVYSFTEFNYWGQVTQVTVSS | high polyreactivity
37 | QVQLVESGGGLVQAGGSLRLSCAASGSTFGRYAMGWYRQAPGKEREMVAGITYGSTYYADSVKGRFTISRDNAKNTVYLQMNSLKPEDTAVYYCAADLSYTCVHGYRSDTLMDYWGQGTQVTVSS | low polyreactivity
38 | QVQLVESGGGLVQAGGSLRLSCAASGRTFLYYAMGWYRQAPGKERELVAAIRRGSSTYYADSVKGRFTISRDNAKNTVYLQMNSLKPEDTAVYYCAARGRYRIGPGRYGKRYDYWGQGTQVTVSS | high polyreactivity
39 | QVQLVESGGGLVQAGSSLRLSCAASGSTFLYYAMGWYRQAPGKEREMVAAITSSGGRTYYADSVKGRFTNSRDNAKNTDYLQMNSLKPEDTAVYYCARGWPRREQSEYDYWGQGTQVTVSS | high polyreactivity
40 | QVQLVESGGGIVLAGGSLRLSCAASGSIYYANAMGWYRQAPGKERELVAVISSGGSTYYADSVNGRFTISRDNAKNTVYLHMNSLKPEDTAVYYCAAETYYYVLPHWYKYKYGYWGQGTQVTVSS | low polyreactivity
41 | QVQLVESGGGLVQAGGSLRLSCAASVSTFRNYAMGWYRQAPGKERELVAAISGSGVRTYYADSVKGRFTISRDNAKNTVYLQMNSLKPEDTAVYYCAARGQGGPYNYWGQGTQVTVSS | high polyreactivity
42 | QVHLVESGGGLVQAGGSLRLSCAASGSIFTVYTMGWYRQAHGKERELVAAINSRGGTTYYADSVKGRFTISRDYAKNTVYLQMNSLKPEDTAVYYCAAKQRPKSYGPVHYYWGQGTQVTVSS | high polyreactivity
43 | QVQLVESGGGIVQAGGSLRLSGAASGFTLTSYAMGWYRQPHGNERELVAGISRGGITYYADSVKGRFTISSDNAKNTVYLQMNSLKPEDTAVYYCATEASFYDPDMYPYGYDYWGQGTQVTVSS | high polyreactivity
